Data reported in doi:10.1101/2022.04.29.490010 (bioRxiv, 2022).

How the values were obtained:
SEC = molecular target: the molecule itself; assay: SEC
SEC-MALS = molecular target: the molecule itself; assay: SEC-MALS

Protein	stoichiometry N (SEC)	stoichiometry N (SEC-MALS)
ENDOA1^WT (human Endophilin-A1, recombinant, GST tag cleaved) (natural protein, UniProt Q99962 1-352, looked up) MSVAGLKKQFHKATQKVSEKVGGAEGTKLDDDFKEMERKVDVTSRAVMEIMTKTIEYLQPNPASRAKLSMINTMSKIRGQEKGPGYPQAEALLAEAMLKFGRELGDDCNFGPALGEVGEAMRELSEVKDSLDIEVKQNFIDPLQNLHDKDLREIQHHLKKLEGRRLDFDYKKKRQGKIPDEELRQALEKFDESKEIAESSMFNLLEMDIEQVSQLSALVQAQLEYHKQAVQILQQVTVRLEERIRQASSQPRREYQPKPRMSLEFPTGDSTQPNGGLSHTGTPKPSGVQMDQPCCRALYDFEPENEGELGFKEGDIITLTNQIDENWYEGMLHGHSGFFPINYVEILVALPH	2	–
ENDOA1^G276V (human Endophilin-A1 with the Parkinson's disease risk variant G276V, recombinant, GST tag cleaved) (natural protein, UniProt Q99962 1-352, looked up) MSVAGLKKQFHKATQKVSEKVGGAEGTKLDDDFKEMERKVDVTSRAVMEIMTKTIEYLQPNPASRAKLSMINTMSKIRGQEKGPGYPQAEALLAEAMLKFGRELGDDCNFGPALGEVGEAMRELSEVKDSLDIEVKQNFIDPLQNLHDKDLREIQHHLKKLEGRRLDFDYKKKRQGKIPDEELRQALEKFDESKEIAESSMFNLLEMDIEQVSQLSALVQAQLEYHKQAVQILQQVTVRLEERIRQASSQPRREYQPKPRMSLEFPTGDSTQPNGVLSHTGTPKPSGVQMDQPCCRALYDFEPENEGELGFKEGDIITLTNQIDENWYEGMLHGHSGFFPINYVEILVALPH	2	–
EndoA wild type (Drosophila Endophilin-A, GST tag cleaved) (natural protein, UniProt Q8T390 1-369, looked up) MAFAGLKKQINKANQYMTEKMGGAEGTKLDMDFMEMERKTDVTVELVEELQLKTKEFLQPNPTARAKMAAVKGISKLSGQAKSNTYPQPEGLLAECMLTYGKKLGEDNSVFAQALVEFGEALKQMADVKYSLDDNIKQNFLEPLHHMQTKDLKEVMHHRKKLQGRRLDFDCKRRRQAKDDEIRGAEDKFGESLQLAQVGMFNLLENDTEHVSQLVTFAEALYDFHSQCADVLRGLQETLQEKRSEAESRPRNEFVPKTLLDLNLDGGGGGLNEDGTPSHISSSASPLPSPMRSPAKSMAVTPQRQQQPCCQALYDFEPENPGELAFKENDIITLLNRVDDNWFEGAVNGRTGYFPQSYVQVQVPLPNGN	–	2
EndoA^D265R (Drosophila Endophilin-A D265R, GST tag cleaved) (natural protein, UniProt Q8T390 1-369, looked up) MAFAGLKKQINKANQYMTEKMGGAEGTKLDMDFMEMERKTDVTVELVEELQLKTKEFLQPNPTARAKMAAVKGISKLSGQAKSNTYPQPEGLLAECMLTYGKKLGEDNSVFAQALVEFGEALKQMADVKYSLDDNIKQNFLEPLHHMQTKDLKEVMHHRKKLQGRRLDFDCKRRRQAKDDEIRGAEDKFGESLQLAQVGMFNLLENDTEHVSQLVTFAEALYDFHSQCADVLRGLQETLQEKRSEAESRPRNEFVPKTLLDLNLRGGGGGLNEDGTPSHISSSASPLPSPMRSPAKSMAVTPQRQQQPCCQALYDFEPENPGELAFKENDIITLLNRVDDNWFEGAVNGRTGYFPQSYVQVQVPLPNGN	–	2
EndoA^D265A (Drosophila Endophilin-A D265A, GST tag cleaved) (natural protein, UniProt Q8T390 1-369, looked up) MAFAGLKKQINKANQYMTEKMGGAEGTKLDMDFMEMERKTDVTVELVEELQLKTKEFLQPNPTARAKMAAVKGISKLSGQAKSNTYPQPEGLLAECMLTYGKKLGEDNSVFAQALVEFGEALKQMADVKYSLDDNIKQNFLEPLHHMQTKDLKEVMHHRKKLQGRRLDFDCKRRRQAKDDEIRGAEDKFGESLQLAQVGMFNLLENDTEHVSQLVTFAEALYDFHSQCADVLRGLQETLQEKRSEAESRPRNEFVPKTLLDLNLAGGGGGLNEDGTPSHISSSASPLPSPMRSPAKSMAVTPQRQQQPCCQALYDFEPENPGELAFKENDIITLLNRVDDNWFEGAVNGRTGYFPQSYVQVQVPLPNGN	–	2
